In US20060009452A1, “Therapeutic targeting of PARC/CCL18 and its signaling in pulmonary fibrosis” (priority 2004, published 2006):
Entries after “also recorded” stand apart in the source; their conditions may differ.

Key:
Sp1 [1] = assay: TranSignal protein/DNA arrays of nuclear lysates; assay type: cell-based, human; conditions: LF1 and LF2
Smad3/4 = assay: EMSA of nuclear lysates with Smad3/4 probe; assay type: cell-based, human
[2] = system: lung and dermal fibroblast lines; assay: CellTiter AQueous 96 fibroblast proliferation assay; assay type: cell-based, human; conditions: for maximum increase in fibroblast proliferation over non-stimulated control: Days 7 and 8, rhPARC 1-3,000 ng/ml
Method: Cell Proliferation Assays. For CellTiter AQueous 96 Non-Radioactive Cell Proliferation Assay (Promega, Madison, Wis.), fibroblasts were plated in low-serum medium at 2×10^3 cells/well in 96-well flat-bottom tissue culture plates (Costar) in 0.2-ml cultures and stimulated with increasing concentrations of rhPARC in quadruplicates. Low-serum tissue culture medium alone was the negative control. The Cell-Titer proliferation assay was performed according to the manufacturer's instructions, after the fibroblasts were incubated with test substances for 3-8 d. Data were expressed as mean OD490±SD of quadruplicate cultures and analyzed using one-way ANOVA with post hoc testing.

Sp1 [3] = assay: Sp1 immunoprecipitation and anti-phosphoserine Western blot; assay type: cell-based, human; conditions: fibroblasts activated with rhPARC up to 24 hours
Method: (§1) To determine if PARC stimulated phosphorylation of Sp1 and Smad3, these factors were immunoprecipitated from lysates of fibroblasts that had been activated with recombinant human PARC for up to 24 hours, and the levels of their phosphorylation were tested in Western blotting assays using anti-phosphoserine and anti-phospho-Smad2/3 antibodies. Equal loading was controlled by stripping the membranes and re-developing them with anti-Sp1, anti-Smad3 and anti-Smad2/3 antibodies (FIG. 17).
(§2) Preparation of fibroblast lysates, immunoprecipitation of Sp1 and Smad2/3, normalization of protein concentration in the samples with BioRad assays, electrophoretic separation, Western blotting, membrane stripping and re-development with different antibodies were performed as described in Atamas et al. (Am. J. Respir. Cell. Mol., 29:743-749 (2003); J. Immunol. 168: 1139-1145 (2002); and Arthritis Rheum., 42:1168-1178 (1999)), which are hereby incorporated by reference. Rabbit antibodies for total Smad2/3 and Sp1 were from Upstate (Waltham, Masss.). Antiphospho-Smad2/3 antibody and goat antibody for total Smad3 were from Santa Cruz Biotechnology (Santa Cruz, Calif.), as was anti-gp130 antibody used to confirm equal loading of the samples. Antiphosphoserine antibody was from Biomol (Plymouth Meeting, Pa.).

Smad3 = Smad3 immunoprecipitation and phosphorylation Western blot; assay type: cell-based, human; conditions: fibroblasts activated with cytokine
Method: as §1, §2

[4] = system: mink lung epithelial cells; assay: Mink lung epithelial cell proliferation assay (thymidine incorporation); assay type: cell-based
Method: Mink Lung Epithelial Cell Proliferation Assay for Active TGF-β. Mink lung epithelial cell line CCL-64 was purchased from American Type Culture Collection (ATCC, Manassas, Va.) and maintained in high-serum medium. For proliferation assays, these cells were plated in 96-well plates at 1×10^4 cells/well in low-serum fibroblast cell culture medium and incubated overnight in humidified atmosphere of 5% CO2 at 37° C. The medium was then replaced with fibroblast cell culture supernatants or titrated dilutions rhTGF-β in low-serum medium, with and without neutralizing anti-pan-TGF-β antibody (clone 1D11 from R&D Systems), and incubation continued for additional 24 hours. Six hours before the end of the assay, wells were pulsed with 1 μCi of 3H-thymidine (Amersham). Quadruplicate cultures were harvested automatically and tritiated thymidine incorporation was measured with a TopCount NXT liquid scintillation counter (Perkin Elmer, Downers Grove, Ill.). Data were expressed as percent inhibition (versus low-serum medium used as a negative control), neutralized by 1 μg/ml of anti-TGF-β antibody (this concentration of the antibody was established in preliminary experiments as sufficient to completely abrogate the inhibitory effect of the fibroblast conditioned medium on mink lung epithelial cell proliferation). […]

B1: rhPARC: Recombinant human pulmonary and activation-regulated chemokine (CC chemokine CCL18), purchased from R&D Systems and Cell Sciences (protein)
chain: AQVGTNKELCCLVYTSWQIPQKFIVDYSETSPQCPKPGVILLTKRGRQICADPNKKWVQKYISDLKLNA
DNA binding by Sp1 (protein/DNA arrays) (Sp1 [1]): consistently increased | density of the specific Smad3 band relative to the density at time 0 (Smad3/4; LF1, LF2, LF4, rhPARC-stimulated samples): 0.9-1.2 fold | DNA-binding activity of Smad3/4 (EMSA) (Smad3/4; after activation with PARC): No increase; also recorded: but not Smad3/4 | maximum increase in fibroblast proliferation over non-stimulated control ([2]; dermal lines): 45-50% | maximum increase in fibroblast proliferation over non-stimulated control ([2]; lung lines): 20-25% | increase in fibroblast proliferation ([2]; summary statement): 25-50% | level of Sp1 phosphorylation (Sp1 [3]): consistently increased | phosphorylation of immunoprecipitated Smad3 (Smad3): No changes in phosphorylation | direct effect on proliferation of mink lung epithelial cells [4]: did not affect proliferation of mink lung epithelial cells
